Where “and” joins values, the source holds several entries; their conditions need not be identical. Identical values can stand only once.
The substances below were run against TOX (UniProt Q66JW3) (assay: TOX co-IP from EL4 nuclear extract, LC-MS/MS, MiST).
Sequence of TOX (Q66JW3 whole entry): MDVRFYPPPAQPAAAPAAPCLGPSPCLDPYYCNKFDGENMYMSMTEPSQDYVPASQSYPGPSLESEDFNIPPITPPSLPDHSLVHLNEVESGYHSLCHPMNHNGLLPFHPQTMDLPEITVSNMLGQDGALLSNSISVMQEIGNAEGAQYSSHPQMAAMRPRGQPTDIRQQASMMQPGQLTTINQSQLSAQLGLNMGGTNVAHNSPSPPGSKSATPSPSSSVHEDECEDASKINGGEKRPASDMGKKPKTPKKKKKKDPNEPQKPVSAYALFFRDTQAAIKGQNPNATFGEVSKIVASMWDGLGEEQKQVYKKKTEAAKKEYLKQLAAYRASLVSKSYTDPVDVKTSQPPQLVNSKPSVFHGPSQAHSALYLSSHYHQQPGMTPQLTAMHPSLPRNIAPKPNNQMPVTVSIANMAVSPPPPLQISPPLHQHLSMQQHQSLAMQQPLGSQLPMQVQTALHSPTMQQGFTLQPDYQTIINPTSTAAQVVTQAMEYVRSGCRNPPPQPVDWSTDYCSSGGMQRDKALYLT
Sequence of Utp11l (Q9CZJ1 whole entry): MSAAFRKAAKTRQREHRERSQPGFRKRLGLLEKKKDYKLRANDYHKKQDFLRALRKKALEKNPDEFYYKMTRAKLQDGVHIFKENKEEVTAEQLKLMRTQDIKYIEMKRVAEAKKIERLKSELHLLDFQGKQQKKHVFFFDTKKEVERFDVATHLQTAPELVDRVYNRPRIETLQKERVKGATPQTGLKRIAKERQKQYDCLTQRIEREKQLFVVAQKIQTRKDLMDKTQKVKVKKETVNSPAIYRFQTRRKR
Sequence of Tmem160 (Q9D938 97-188): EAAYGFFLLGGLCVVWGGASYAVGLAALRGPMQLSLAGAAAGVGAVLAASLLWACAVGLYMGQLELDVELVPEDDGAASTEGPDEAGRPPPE
Ap3m1 (from UniProt Q9JKC8 1-418) was tested, and the Abundance was 1.64e-05, the MiST Score was 0.829 and the Reproducibility was 0.982. For the same substance, the Specificity was 0.767.
Arhgef2 (from UniProt Q60875 1-985) showed an Abundance of 1.33e-05, a MiST Score of 0.847 and a Reproducibility of 0.943. For the same substance, the Specificity was 0.811.
Substance Atxn2 (from UniProt O70305 1-1285) has an Abundance of 2.51e-06, a MiST Score of 0.831 and a Reproducibility of 0.831. The Specificity was 0.838.
Ccnk (from UniProt O88874 1-554) showed an Abundance of 1.18e-05, a MiST Score of 0.846 and a Reproducibility of 0.975. The Specificity was 0.795.
Cdc16 (from UniProt Q8R349 1-620) was tested, and the Abundance was 4.84e-06, the MiST Score was 0.847 and the Reproducibility was 0.524. For the same substance, the Specificity was 1.
Work on Cnot1 (from UniProt Q6ZQ08 1-2375) yielded an Abundance of 5.57e-07, a MiST Score of 0.85 and a Reproducibility of 0.931. For the same substance, the Specificity was 0.821.
Work on Copg1 (from UniProt Q9QZE5 1-874) yielded an Abundance of 3.36e-06, a MiST Score of 0.844 and a Reproducibility of 0.514. It also gave a Specificity of 1.
For Cpt1a (from UniProt P97742 2-773), the Abundance was 7.71e-07, the MiST Score was 0.847 and the Reproducibility was 0.522. It also gave a Specificity of 1.
For Csrp1 (from UniProt P97315 1-193), the Abundance was 5.52e-05, the MiST Score was 0.828 and the Reproducibility was 0.966. For the same substance, the Specificity was 0.773.
Ddx23 showed an Abundance of 7.9e-06, a MiST Score of 0.836 and a Reproducibility of 0.837. It also gave a Specificity of 0.843.
Dhx29 (from UniProt Q6PGC1 1-1365) was tested, and the Abundance was 5.88e-07, the MiST Score was 0.847 and the Reproducibility was 0.928. The Specificity was 0.818.
Dnajb6 (from UniProt O54946 1-365) gave an Abundance of 2.48e-05, a MiST Score of 0.837 and a Reproducibility of 0.944. For the same substance, the Specificity was 0.796.
In the case of Dnajb11 (from UniProt Q99KV1 23-358), the Abundance is reported as 2.91e-05, the MiST Score is reported as 0.839 and the Reproducibility is reported as 0.783. It also gave a Specificity of 0.872.
With “Gm20517; Med20 (from UniProt Q9R0X0 1-212)” the Abundance was 2.2e-05, the MiST Score was 0.831 and the Reproducibility was 0.472. For the same substance, the Specificity was 1.
Gnl2 (from UniProt Q99LH1 1-728) showed an Abundance of 7.98e-06, a MiST Score of 0.843 and a Reproducibility of 0.894. The Specificity was 0.827.
Hsd17b10 (from UniProt O08756 2-261) gave an Abundance of 1.27e-05, a MiST Score of 0.857 and a Reproducibility of 0.557. For the same substance, the Specificity was 1.
Lsg1 (from UniProt Q3UM18 1-644) gave an Abundance of 2.9e-06, a MiST Score of 0.837 and a Reproducibility of 0.886. It also gave a Specificity of 0.822.
With Mark2 (from UniProt Q05512 1-776) the Abundance was 2.81e-06, the MiST Score was 0.842 and the Reproducibility was 0.891. For the same substance, the Specificity was 0.826.
Mcm5 (from UniProt P49718 2-734) showed an Abundance of 4.18e-06, a MiST Score of 0.85 and a Reproducibility of 0.757. It also gave a Specificity of 0.9.
Substance Mrpl3 (from UniProt Q99N95 41-348) has an Abundance of 7.04e-05, a MiST Score of 0.857 and a Reproducibility of 0.555. The Specificity was 1.
Work on Nob1 (from UniProt Q8BW10 1-403) yielded an Abundance of 2.4e-05, a MiST Score of 0.84 and a Reproducibility of 0.955. For the same substance, the Specificity was 0.796.
Work on Nop2 (from UniProt Q922K7 1-793) yielded an Abundance of 8.3e-05, a MiST Score of 0.844 and a Reproducibility of 0.981. The Specificity was 0.789.
For Nop14 (from UniProt Q8R3N1 1-860), the Abundance was 1.27e-06, the MiST Score was 0.84 and the Reproducibility was 0.501. For the same substance, the Specificity was 1.
In the case of Nsf (from UniProt P46460 1-744), the Abundance is reported as 2.87e-06, the MiST Score is reported as 0.838 and the Reproducibility is reported as 0.808. For the same substance, the Specificity was 0.859.
Orc1 (from UniProt Q9Z1N2 1-840) was tested, and the Abundance was 1.58e-06, the MiST Score was 0.843 and the Reproducibility was 0.866. For the same substance, the Specificity was 0.839.
With Orc3 (from UniProt Q9JK30 1-715) the Abundance was 7.41e-07, the MiST Score was 0.848 and the Reproducibility was 0.528. The Specificity was 1.
With Rbm28 (from UniProt Q8CGC6 2-750) the Abundance was 8.77e-06, the MiST Score was 0.855 and the Reproducibility was 0.958. It also gave a Specificity of 0.815.
Substance Rrbp1 (from UniProt Q99PL5 1-1605) has an Abundance of 1.36e-06, a MiST Score of 0.834 and a Reproducibility of 0.675. It also gave a Specificity of 0.913.
Samd1 (from UniProt D3YXK1 1-519) was tested, and the Abundance was 2.47e-06, the MiST Score was 0.829 and the Reproducibility was 0.886. It also gave a Specificity of 0.811.
Skap2 (from UniProt Q3UND0 1-358) showed an Abundance of 4.76e-06, a MiST Score of 0.845 and a Reproducibility of 0.516. For the same substance, the Specificity was 1.
Sorbs1 (from UniProt Q62417 1-1290) was tested, and the Abundance was 1.52e-05, the MiST Score was 0.829 and the Reproducibility was 0.997. The Specificity was 0.76.
In the case of Sptbn1 (from UniProt Q62261 2-2363), the Abundance is reported as 1.19e-05 and 1.09e-05, the MiST Score is reported as 0.84 and the Reproducibility is reported as 0.996. The Specificity was 0.777.
Sugp1 (from UniProt Q8CH02 1-643) showed an Abundance of 7.71e-06, a MiST Score of 0.832 and a Reproducibility of 0.906. It also gave a Specificity of 0.807.
For Tmem160, the Abundance was 3.49e-05, the MiST Score was 0.846 and the Reproducibility was 0.94. For the same substance, the Specificity was 0.812.
With Tmem214 (from UniProt Q8BM55 2-687) the Abundance was 1.26e-06, the MiST Score was 0.85 and the Reproducibility was 0.532. It also gave a Specificity of 1.
In the case of Trrap (from UniProt Q80YV3 1-2565), the Abundance is reported as 9.36e-08, the MiST Score is reported as 0.847 and the Reproducibility is reported as 0.524. It also gave a Specificity of 1.
In the case of Utp11l, the Abundance is reported as 4.22e-05, the MiST Score is reported as 0.856 and the Reproducibility is reported as 0.553. For the same substance, the Specificity was 1.
In the case of Wdr82 (from UniProt Q8BFQ4 1-313), the Abundance is reported as 0.00013, the MiST Score is reported as 0.846 and the Reproducibility is reported as 0.951. For the same substance, the Specificity was 0.807.
With Zcchc8 (from UniProt Q9CYA6 2-709) the Abundance was 2.87e-06, the MiST Score was 0.834 and the Reproducibility was 0.483. For the same substance, the Specificity was 1.
Zmym4 (from UniProt A2A791 2-1549) showed an Abundance of 1.92e-06, a MiST Score of 0.841 and a Reproducibility of 0.503. For the same substance, the Specificity was 1.

Each substance was assayed against TOX (UniProt Q66JW3) (assay: anti-TOX IP from EL4 nuclear extract, LC-MS/MS, MiST analysis).
Racgap1 (from UniProt Q9WVM1 1-628) gave an Abundance of 8.29e-06, a MiST Score of 0.793 and a Reproducibility of 0.868. For the same substance, the Specificity was 0.765.
For Rbm15 (from UniProt Q0VBL3 1-962), the Abundance was 8.04e-06, the MiST Score was 0.776 and the Reproducibility was 0.987. The Specificity was 0.687.
Work on Rcc1 (from UniProt Q8VE37 2-421) yielded an Abundance of 2.79e-05, a MiST Score of 0.796 and a Reproducibility of 0.986. It also gave a Specificity of 0.717.
In the case of Rcc2 (from UniProt Q8BK67 1-520), the Abundance is reported as 3.74e-05, the MiST Score is reported as 0.79 and the Reproducibility is reported as 0.958. The Specificity was 0.722.
Work on Sin3a (from UniProt Q60520 1-1274) yielded an Abundance of 5.49e-06, a MiST Score of 0.773 and a Reproducibility of 0.284. The Specificity was 1.
Slc25a3 (from UniProt Q8VEM8 46-357) showed an Abundance of 6.71e-05, a MiST Score of 0.778 and a Reproducibility of 0.975. For the same substance, the Specificity was 0.696.
Slc25a4 (from UniProt P48962 2-298) showed an Abundance of 0.000186, a MiST Score of 0.765 and a Reproducibility of 0.959. It also gave a Specificity of 0.684.
In the case of Slc25a11 (from UniProt Q9CR62 2-314), the Abundance is reported as 2.29e-05, the MiST Score is reported as 0.788 and the Reproducibility is reported as 0.956. For the same substance, the Specificity was 0.72.
In the case of “Smarca4 (from UniProt Q3TKT4 1-1613) (enzyme)”, the Abundance is reported as 6.52e-07, the MiST Score is reported as 0.786 and the Reproducibility is reported as 0.594. It also gave a Specificity of 0.879.
Srp72 showed an Abundance of 3.55e-05, a MiST Score of 0.765 and a Reproducibility of 0.872. The Specificity was 0.723.
Srrm2 (from UniProt Q8BTI8 1-2703) was tested, and the Abundance was 1.1e-06, the MiST Score was 0.769 and the Reproducibility was 0.861. It also gave a Specificity of 0.734.
For Tcof1 (from UniProt O08784 1-1320), the Abundance was 0.000142, the MiST Score was 0.77 and the Reproducibility was 0.984. It also gave a Specificity of 0.681.
Substance Terf2 (from UniProt O35144 1-541) has an Abundance of 6.86e-06, a MiST Score of 0.79 and a Reproducibility of 0.994. The Specificity was 0.705.
With Thoc1 (from UniProt Q8R3N6 1-657) the Abundance was 9.29e-06, the MiST Score was 0.775 and the Reproducibility was 0.999. It also gave a Specificity of 0.681.
In the case of “Umps (from UniProt P13439 1-481) (enzyme)”, the Abundance is reported as 2.41e-06, the MiST Score is reported as 0.766 and the Reproducibility is reported as 0.792. The Specificity was 0.761.
“Usp10 (from UniProt P52479 2-792) (enzyme)” showed an Abundance of 3.26e-06, a MiST Score of 0.793 and a Reproducibility of 0.613. For the same substance, the Specificity was 0.881.
Wdr36 gave an Abundance of 3.46e-06, a MiST Score of 0.785 and a Reproducibility of 0.886. It also gave a Specificity of 0.747.
With Xrcc5 (from UniProt P27641 1-732) the Abundance was 2.92e-05, the MiST Score was 0.775 and the Reproducibility was 0.737. The Specificity was 0.799.
Substance “Xrn2 (from UniProt Q9DBR1 1-951) (enzyme)” has an Abundance of 8.55e-06, a MiST Score of 0.787 and a Reproducibility of 0.804. The Specificity was 0.787.
In the case of Ywhah (from UniProt P68510 2-246), the Abundance is reported as 6.28e-05, the MiST Score is reported as 0.774 and the Reproducibility is reported as 0.819. It also gave a Specificity of 0.761.
Zw10 (from UniProt O54692 2-779) gave an Abundance of 2.83e-06, a MiST Score of 0.767 and a Reproducibility of 0.582. For the same substance, the Specificity was 0.857.

These substances were tested against TOX (UniProt Q66JW3) (assay: anti-TOX IP from EL4 nuclear extract, LC-MS/MS, MiST vs IgG control).
For Abcf1 (from UniProt Q6P542 1-837), the Abundance was 1.12e-05, the MiST Score was 0.76 and the Reproducibility was 0.747. It also gave a Specificity of 0.773.
Abcf2 (from UniProt Q99LE6 1-628) gave an Abundance of 2.89e-05, a MiST Score of 0.756 and a Reproducibility of 0.917. It also gave a Specificity of 0.69.
